Data from US6977175 (MIT, dated 2005).

T1: LIN-15B protein (C. elegans, UniProt Q27395 1-1440, limits assumed)
T1 construct: Tested in a yeast two-hybrid assay; The fusion partners and construct limits are not described
T1 sequence (looked up): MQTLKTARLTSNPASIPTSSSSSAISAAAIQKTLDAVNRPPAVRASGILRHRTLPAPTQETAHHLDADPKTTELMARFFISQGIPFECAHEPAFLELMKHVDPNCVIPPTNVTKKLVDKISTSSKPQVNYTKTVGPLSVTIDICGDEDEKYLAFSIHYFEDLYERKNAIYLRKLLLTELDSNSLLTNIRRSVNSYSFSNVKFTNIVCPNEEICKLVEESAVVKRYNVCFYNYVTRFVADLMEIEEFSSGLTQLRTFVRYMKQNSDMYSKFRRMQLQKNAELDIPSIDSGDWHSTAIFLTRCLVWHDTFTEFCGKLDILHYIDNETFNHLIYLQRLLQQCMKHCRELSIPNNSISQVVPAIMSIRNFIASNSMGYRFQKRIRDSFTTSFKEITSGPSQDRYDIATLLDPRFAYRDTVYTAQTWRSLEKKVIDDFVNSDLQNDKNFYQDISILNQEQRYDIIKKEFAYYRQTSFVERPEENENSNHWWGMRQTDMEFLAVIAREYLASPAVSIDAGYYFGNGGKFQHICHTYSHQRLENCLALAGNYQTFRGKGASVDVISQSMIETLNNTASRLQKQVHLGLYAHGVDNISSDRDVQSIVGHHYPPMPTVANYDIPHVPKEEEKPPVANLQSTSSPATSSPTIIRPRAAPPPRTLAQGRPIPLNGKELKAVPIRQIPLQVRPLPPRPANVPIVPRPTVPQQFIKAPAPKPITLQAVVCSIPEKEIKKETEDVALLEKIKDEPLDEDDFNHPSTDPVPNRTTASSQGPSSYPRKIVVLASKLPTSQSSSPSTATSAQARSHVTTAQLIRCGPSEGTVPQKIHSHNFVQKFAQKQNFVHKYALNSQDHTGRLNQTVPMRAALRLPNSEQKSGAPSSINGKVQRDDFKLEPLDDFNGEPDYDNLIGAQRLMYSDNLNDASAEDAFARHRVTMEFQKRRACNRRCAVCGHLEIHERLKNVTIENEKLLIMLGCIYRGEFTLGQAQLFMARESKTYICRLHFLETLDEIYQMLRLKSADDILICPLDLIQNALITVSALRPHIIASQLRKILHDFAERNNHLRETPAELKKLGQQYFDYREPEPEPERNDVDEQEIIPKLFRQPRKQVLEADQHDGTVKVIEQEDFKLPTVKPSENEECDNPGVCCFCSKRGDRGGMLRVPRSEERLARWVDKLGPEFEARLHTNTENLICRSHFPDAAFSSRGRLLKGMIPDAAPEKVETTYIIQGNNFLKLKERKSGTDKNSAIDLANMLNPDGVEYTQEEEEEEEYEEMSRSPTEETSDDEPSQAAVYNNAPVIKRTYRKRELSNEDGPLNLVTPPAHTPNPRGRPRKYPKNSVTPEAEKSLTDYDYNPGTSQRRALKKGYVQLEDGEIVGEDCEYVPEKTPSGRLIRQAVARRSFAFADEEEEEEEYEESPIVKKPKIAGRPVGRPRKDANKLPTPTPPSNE

B1: LIN-9 protein (other, C. elegans, UniProt P30630 1-644, looked up)
chain: MSSAVRSPRKKAASDTSDPDRTSSPYSLRETSKVPSRYRNEELYLSPSRSIKRTGSPKKSPAKRLNGGRDSPSVNSLTRNSSLTMLAKAALDYESSSCALEYIFQPKEERRPPRRALALSPPPAPSNDLLAKDLEMIEMHQNLVAGLDDLDNPANMTNEAVEHRDTQSFFNMFSTDQERSAMMKQFKTYKNQTSEDVSTFMRANIKKLYNLLRYKKARQWVMCEFFYSAIDEQIFKEENEFATIIRESFPNLKNWNLTRIEWRSIRKLLGKPRRCSKVFFEEERMYLEEKRMKIRSVYEGSYLNDPSIDLKDLPAKLPRPMVVGNRVFARIRNPYDGIYSGIIDAVIPKGFRIIFDKPDIPPTLVSDTEILLDGKLDLLSIAYFIEQANSKLPSGVRPFVAAVRDSSHPHLVRDVLVSRKIERSGGPLMGPNDERLNGKNAEMVGNFPLKFLVNLVKLTKLIDIKKGLIRQLNELNADAEIQNMTSDKYSKAFQEKYAKTIIDLEHVNQNIDINMNGIQDHHMYFSSNDISTSNMKPEAVRQMCSQQAGRFVEHCNQGLNVENVHALTLIQSLTAVLLQVRTMGTQKISAVDLQSLGDAISEIRTAIHPRNVAFFQDYVEVHMKQFHTIMLESGALAGTVSNRK
notes: Tested in a yeast two-hybrid assay; The fusion partners and construct limits are not described
B2: LIN-15A protein (other, C. elegans, UniProt Q27365 1-719, looked up)
chain: MLAPAAPAKDVVSADEKEEIIAKRKFRMKNVDAMRMSSLANDRMAFNKKCNALAMKFVKSAGIGTDALQLTCFQELVRHFNPIAAVVVGVKREPNSNVQAEKKTIPKVKTIQTPTQSMESVRLLQEKKASATEEQSAESASIMKHFANTIPNSTPTQSVKDVLTAAASKGQFKSSAEIFSHFPSEPSPSKPRATREGSQPSDYTYCTYLTPCILCEKALLMRESIAMTDNEAVKVLMAAVMSGHFRMATAEKAIRHERLRMCYDHVDFVYEMMCDAFEAKTESEINEMPPDRLMRGHDIYRALKRVGDLHKGKVTSNTPLYSFKNSIKSYYRNHVPRMVNGSLSKPSPKPFSELVALLQSVPPSTNLNELLNHNLSLSDADKQELIQLINGKDNRFTSRRRKIEDILDNKFAAAAAKAYRDHSEDAPSEPYIPNQSEMQNTVERRKRKLHSPEQDDAGSSSISWNAKKTKTPIDYVHLATRVLEGHSIADEALLHKSKVSYARNAFGEKPSSPTPPSAPLKFCVVNGKKYLRFENGTGPPKVVVQGNVVLRTNTLKDALTTAPRAQNQPSTSTDSSSSSEMEGIRQSFGAPQKEEEEEELVPTLLQNKPTHVESSSPVEKKPPTKTNVEKPAVRLGRMLTTAFGSMSYRTRKSVENKTDLLNQPTSASPRRMIKVVRNRNPHLAKQVAAAPSEPKHIPPTHMEKKPEELLMDPKPEPIF
notes: as for B1

Tests used:
LIN-15B protein = target: T1, LIN-15B protein; experiment: yeast two-hybrid
LIN-15A protein = target: B2; experiment: yeast two-hybrid

| Binder | binding result (LIN-15B protein) | binding result (LIN-15A protein) |
| --- | --- | --- |
| B1 | no binding | no binding |
| B2 | no binding |  |
